Laboratory results: the DeepSol protein solubility set

assay: soluble on expression in E. coli; label from the status in PepcDB or PDB records

| Sequence | soluble on expression in E. coli |
| --- | --- |
| MGTIGKKAAKGASVKFSESSTQAVIKATYLQVFGRDVYEGQRLKVQEIKLENGEISVRDFVRALAKSDLFRKLYWTPFYVCKAIEYIHRRLLGRPTYGRQENNKYFDIASKKGLYAVVDAILDSLEYTETFGEDTVPYERYLTPAGLEHHHHHH | not soluble |
| PLPATANSHEYLLDNGLKLVVKEDHRSPVVIQQVWYKAGSMDEVNGTTGVAHALEHMMFKGTDSVLAGEFSRKIAAIGGKENAFTSRDYTAYYQQLHQRHLPMAMELESDRMHNLQLTEEAFAKEIQVVMEERRLRTDDQAHSLLYEKMMATAFQTHPYRRPVIGWMNDLENMQVNDARDWYQRWYAPNNAVLVVVGDVDPENVFVLAKKYYGRF | not soluble |
| MSLSDPKFIHLRIHSDFSMVDGLSKVPPLVKKVAAMGMPAMALTDFTNLCGLVKFYSTAHNCGVKPIIGADFTLQSEEFGDELTKLTLLAKNNVGYKNLTLLISKAYLRGHVQHQPVIDKAWLVEHAEGLIVLSGGKSGEVGRALLKGNQQQVERCIEFYQTHFADHFYLELIRTGRADEESYLHFALDVAEQYDLPVVATNEVVFITEGHHHHHH | not soluble |
| MRPLTRLVPLALLLLAGCAGPLPQPDPQMAWVELRSAPANTLLAERLDGERLSDGRYFQVTPGRHVLEVRFQYELYGGSGGGGGGFGEPVQINCYQQVVYDGFEAGRRYRLEVRPQLRRALALLSDERGEVVARSNFQTSRCPPY | not soluble |
| MQLKRVAEAKLPTPLGDFLMVGFEELATGHDHAALVFGDISGKTPVLARVHSECLTGDALFSLRCDCGFQLEAALTHIAEEGRGILIYHRQEGRNIGLLNKIRAYALQDQGYDTVEANHQLGFAADERDFTLCADMFKLLGVDEVRLLTNNPKKVEILTEAGINIVERVPLIVGRNPNNEHYLDTKAAKMGHLLSKLEHHHHHH | soluble |
| MFGKGGLGNLMKQAQQMQEKMQKMQEEIAQLEVTGESGAGLVKVTINGAHNCRRVEIDPSLLEDDKEMLEDLVAAAFNDAARRIEETQKEKMASVSSGMQLPPGFKMPF | soluble |
| MAQSNTTTTTLVVKSEDQEEVQEEHVLRLRAPPSPPHVTWAEGVVDNEHMGRLKSNCCCIYVAPRQWDDPSTWEPNEYETEHCRGHTLPERKKKKEDGGDEGDDENKENKDNKDNKDNKDNKDNNGCGCDHC | not soluble |
| LSSVSSIPDYAEQLRTADLRVTRPRVAVLEAVNAHPHADTETIFGAVRFALPDVSRQAVYDVLHALTAAGLVRKIQPSGSVARYESRVGDNHHHIVCRSCGVIADVDCAVGEAPCLTASDHNGFLLDEAEVIYWGLCPDCSISDTSRSHP | soluble |
| MGSDKIHHHHHHLVSDNMVLQQATKVRLWGNATPNSSLKVRSSWDNTEYTAQVNDQGRWEIWVQTPSASFEKQQLTLKNGQDKIVLHDLLIGEVWFGSGQSNMEMPLRGFWHCPIEGGNHAIATSGKYKNSIRYATIQRVGALEPKDYPVGGEWKVCDPRNAPEFGATAYFFATLLTEVLNVPVGIINCSWGGSTVEGWLPKDILRNYSDIDLSLAGNDEKIHPMLQPMIMYNGMLKPASKYTVRGFLWYQGESNVGHPDYAKRLATMVEHWRGLWGQEELPFYLVEIAPYEYGEGDQAAYLREEQYKATRLIPNSGIVSTNDLVQDYEKRQIHPKEKQKIGERLCYMALNKTYGYTTIACEGPQYDHMEVDKDKIILFFKNAEDGFNRDNGIIGFEIAGKDMRFHKANATIDANKKTVIISAPDVKAPIAVRYGFRNFQIGNLQNVQGLPVLPFRTDK | not soluble |
| MEKISDLIECIAYEKNLPKEMISKVIQGCLLKMAQNELDPLARYLVVEENKQLQLIQLVEVLEDGDERLVNDPSKYISLSKAKEMDPSVKIKDELSYSLSLESMKQGAINRLFKDLQYQLEKALEDSHFEAFQKRLNSVLMGQVILVDHNQNTFIEIEQQFQGVLSMRHRIKGESFKVGDSIKAVLTQVKRTKKGLLLELSRTTPKMLEALLELEVPEIKDKEIEIIHCARIPGNRAKVSFFSHNARIDPIGAAVGVKGVRINAISNELNKENIDCIEYSNVPEIYITLALAPAKILSVEIKKIPIEELNAEEKESIQERFIVNNHLQKAKVRLLDIEKSKAIGKGGVNVCLASMLTGYHIEFETIPSVKENAENESEKETPKVGVEALESLFKN | not soluble |
| MIRVACVGITVMDRIYYVEGLPTESGKYVARNYTEVGGGPAATAAVAAARLGAQVDFIGRVGDDDAGNSLLAELESWGVNTRYTKRYNQAKSSQSAIMVDTKGERIIINYPSPDLLPDAEWLEEIDFSQWDVVLADVRWHDGAKKAFTLARQAGVMTVLDGDITPQDISELVALSDHAAFSEPGLARLTGVKEMASALKQAQTLTNGHVYVTQGSAGCDWLENGGRQHQPAFKVDVVDTTGAGDVFHGALAVALATSGDLAESVRFASGVAALKCTRPGGRAGIPDCDQTRSFLSLFV | not soluble |
| MFFIRTAGLRDIEPVRTLLATTWHATYDAIYGADKVNELIAVWHSPQAMKDRVEKKGGEFLVADDGKRIGGMAYGSMSTKMAKTALLHQLYVAPDLQRQGVGRDLFAELETCFPDAEIMRLEVEPKNTVAIAFYEGVGFVEVDRIERMAGIEGLPGIVMEKSLTR | not soluble |
| MKTKIINLVVVTGMSGAGKTVAIQSFEDIGYFTIDNIPPSLVPKVIELLKHSEETDKIALVVDMRSRVFFDEINDILDQLESNEELNFKILFLDATDGELVSRYKETRRSHPLAADGRVLDGIKLERELLSPLKSLSQNVVDTTKLTPRQLRKAISEQFSSKQDQSSFRIEVLSFGFKYGLPLDADLVFDVRFLPNPYYDPTLRNLTGLDKEVYDFVMTHKESEDFYKNLNHLIKPILPGYQKEGKSVLTIAVGCTGGQHRSVAFAHRLAQDLKNDWTVNETHRDKDRRKETVNRS | not soluble |
| MTRSVSHPPYADPFAHPPETSPQELTAQLTPGARFQDVRFENYRPNPEFPSQAQARDQLAEFVRQAGQKASGGGFWPFKRRAPEGRGFYLDGGFGVGKTHLLASAYHAAKGQSGGSGGDVAFMSFQDLMYLIGALGMPQAIETFRNYKLLLIDEFELDDPGNTHMANTFLGGLMPSGVSVVATSNTEPGALGAGRFNAEDFQRQIQGIADRFGPHRIDGPDYRQRGTEPAQPLSEAEFAAWLARQNPQTTALMTHAELNRALLSVHPSRFARVLEQVSGVAVTNLEPMPEQGEALRFVHFVDKVYDLGLSAAFTGVPLNALFDDIYRNGGYAKKYSRALSRLSEMLREARGLEHHHHHH | not soluble |
| MNIFSKPDPKELERANKRELRKTNRDLESDRRQMDRREKELEQEIKKLAAKGHNDAARHLAKQLVQLRNQKTKSIGMSARISGVQAQNSHMQSMAKMGSAMGTTVKTMKAMNAQMPLEKVAANMREFQMAQEKMGLTEEMMNDTLDSILDAPGDADEQDAIVNQVLDEIGIEMNSKLANVPALPTKVSSTAPADFDDLEAQLARLRS | not soluble |
| MNNNDIIRRLRYTFDFNDDKMIQLFALADQQVTRAEISNWMKKDDDPDFKELYDKELAVFLNGFIIDKRGKKDGQTPVAEKSLNNNIIFRKLKIALNLQDDDILDILELADMRFGKHELSALFRNPDQSQFRPCKDQVLRNFIHGLQLKYRKE | not soluble |
| MSLAAVILDYNGVIGLQPTTDQWLRLARTALWPEDDLPAFQNAFWTARTAYDAGHLSDLAYWATVLGHHPGARRLRGLRDADTDMWTSIDDHVIDVLHQAHESGLPLVLLSNAPRHLSDVLDRRPWRRLMTHAFYSARLQVCKPDPAAYQHAMNATGAADPDRVLFVDDRADNCHAARHLGLRTLHYTGHPTDLAAALQPPNEGHHHHHH | soluble |
| HHHHHHTDPALRAAQQTPLYEQHTLCGARMVDFHGWMMPLHYGSQIDEHHAVRTDAGMFDVSHMTIVDLRGSRTREFLRYLLANDVAKLTKSGKALYSGMLNASGGVIDDLIVYYFTEDFFRLVVNSATREKDLSWITQHAEPFGIEITVRDDLSMIAVQGPNAQAKAATLFNDAQRQAVEGMKPFFGVQAGDLFIATTGYTGEAGYEIALPNEKAADFWRALVEAGVKPCGLGARDTLRLEAGMNLYGQEMDETISPLAANMGWTIAWEPADRDFIGREALEVQREHGTEKLVGLVMTEKGVLRNELPVRFTDAQGNQHEGIITSGTFSPTLGYSIALARVPEGIGETAIVQIRNREMPVKVTKPVFVRNGKAVAGLCGR | soluble |
| MNIDTRIKFRHLVCFLEVARQGSLARASDALAISQPALSKSLKELETLLATTLFVRSKSGAALTDAGVAFMRFAGPSVQALRDGVSSLRSGEHETVTARLGVLSTAESLLVPEVVKRLHTRHPALIVSVMTGPSAYLLSQLRVGELDLVVGRMTDSPQIQGLTFEHLYHESMTLVVRNDHPLLAAPLKRESLEQFPLVLPLAGTTIRKFADSLFVQCGIQMPRQRLETLSLTLSRRYVQCSNAIWIAPLDAVLLELKGGTLVELDMGIREPGGSVGLCSNPALPLTRAAQWCVDELRTVGAAYREGQYA | not soluble |
| MADILLLDNIDSFTYNLVDQLRSSGHRVVIYRNHIAADNIIERLQQLEQPVLMLSPGPGTPAQAGCMPELLQRLQGQLPMIGICLGHQAIIEAYGGHVGQAGEILHGKASAIEHDGQGMFAGMPNPLPVARYHSLVGSNLPAELTVNARFGEMVMAVRHDAHRVCGYQFHPESILTTHGARLLEQTLAWALA | not soluble |
| MGSDKIHHHHHHMNTQPVIGISGCLTGSAVRFDGGHKRMGFVMDELAQWVAFKPVCPEMAIGLPVPRPALRLVQTPVGEIRMRFSHAPHEDVTEKMADFASAHLATLGGLSGFIVCAKSPSCGMERVRLYDEKGNRGRKEGVGLFTGALMARYPWLPVEEDGRLHDPLLRENFVERVFALHELNALRARGLTRHGLLAFHSRYKLQLLAHHQAGYREIGPFVASLHEWEDLEAFFEVYREKLMAILKQPASRKNHTNVLMHIQGYFRDQLNSRQRGELREVILNYRAGLLPILAPLTLLKHYLAEYPDRYLQAQNYFDPYPQDLALRLTVN | not soluble |
| MSRARCERCLRPAGHCLCPLIPQLPSRTRVLLLQHPSEVNHALNTARLAALGLNNAELVVGEVFEELPALLDQPGYRACLLFPADDARPLQAYAETDVPLLLVVPDGTWRKARKLLHLNPLLAALPRVTLATGVESRYRLRKAPGPGALSTVEAIVQALQVLEAPASFEPLLRPFEALIEGQIAAMGEDTYQRNHAKSAAALEHHHHHH | not soluble |
| MGSDKIHHHHHHMSEVYRQNPKVEAIILAGSVARKLEDEHSDIELHILWSMPPEDEDRKGPINYIGGTILSYHPYEEEEWSETYLTKEGIKLEISNFLTETVEKVIEDVVVQYDISYEKQCIVSSIHDGASLYGEEKVHELKDRVLAYPEDLAKRMISENLWLSNRWHNREALLKRKDWLMLYDVICEAQRNIFGVLFGLNKMYVHHPAFKWMPYNVERMIIKPENLYERMTNTLIGKPEYSIQELGVLIEELLQLVEHHAPELHIAEQQKRIQYAK | not soluble |
| MSTDAFYSTAFPTIPGTPNLLGYTAYSPQSIFNDSRPASSVNNTPSTSFNSSIHSRNRSIAMLHSISHILSNDDSLGSTTESSTPSTPEIHPSNAPAKKTIPLVLISDTDEECDKKSRKRRIRSKSSKKSRGIRKSRKHEASDYRKKIMLGTFEGRKIVLKLMK | not soluble |
| RYRAHCDAIALCAPMFGIIIRLPDWMVRHILDWAEGHQRIREEYAIGTGRWRALPFAVNVLTHSRQRYRRNLRFYADEPRLQVGGPTWHWVREGMLAGDEVLANVEKDTAPTLLLQAEEERVVDNLMHDRYCELRAAAGHPCEGGKPLVIEGAYHEILFEKDAMRSVALNAIVEFFNRHT | not soluble |
